Laboratory results: the DeepSol protein solubility set

Experiment: soluble on expression in E. coli; label from the status in PepcDB or PDB records

Soluble on expression in E. coli, soluble:
MAHHHHHHMQTVPSFQKTTSFHCSKAGRVLYSFREASRISGTHLPIVSAVDSYTLDSVFSEEVRPSFKSFAVDPSDRYCAAILDQDIDSVIRLFSLSAGPYPDHGAFASPAVQEEQDSAMGADEEEMEQWSIEDDDYDTDDSTDSNDDEFEEDEDDDDDSYDEEDAEEEFEEWEEEDEEESSPGTGSGSDEQEGTQASSRHAN
QLRDFSSIIQTCSGNIQRISQATAQIKNLMSQLGTKQDSSKLQENLQQLQHSTNQLAKETNELLKELGSLPLPLSTSEQRQQRLQKERLMNDFSAALNNFQAVQRRVSEKEKESIAR
MYIVIAGGGEMGGELARALEKTHDVVVIDRNPQARERFASLDVKVVVGGATDPDTLREAGVDRADLFVASTDSDEINLLASLLAKGLGAKEAFCFVGKGGYVEVLTDPRTAEILGTRIDRVLWPQRAMAREIVEVILVPWAVDTEVLAGGRLRFVEYRVKEGGEYVHRLLSGEKWPEGVLLAGVVREGTFLSFAHPEFPELILEPGDKLLFVATQKAFSELAAYFTEGPGVRRVMVIGGGNVGFMVAQGLLKRRVEVVIVERNAERCQWLSEELPGALVIQGDGTDIELLEAEGMAEADAVVAVTDHDEKNLLASLLAKQMGVRKVITRVSRSETRRLFEQVGIDLALTPRQAAVREVLDWIGPENVEHIATLDESIEVLEVLVSEGAAPKALRDLVRPDAVPVALERDHRIFLYEEGLGLLPGDRLYLVAAREVADEVLAPFFPE
SNAMTMKVGFIGLGIMGKPMSKNLLKAGYSLVVSDRNPEAIADVIAAGAETASTAKAIAEQCDVIITMLPNSPHVKEVALGENGIIEGAKPGTVLIDMSSIAPLASREISDALKAKGVEMLDAPVSGGEPKAIDGTLSVMVGGDKAIFDKYYDLMKAMAGSVVHTGDIGAGNVTKLANQVIVALNIAAMSEALTLATKAGVNPDLVYQAIRGGLAGSTVLDAKAPMVMDRNFKPGFRIDLHIKDLANALDTSHGVGAQLPLTAAVMEMMQALRADGHGNDDHSALACYYEKLAKVEVTR
SELPPEPQANGEAVGAGGGPIYYIYEEEEEEEEEEEEPPPEPPKLVNDKPHKFKDHFFKKPKFCDVCARMIVLNNKFGLRCKNCKTNIHEHCQSYVEMQRCFGKIPPGFHRAYSSPLYSNQQYACVKDLSAANRNDPVFETLRTGVIMANKERKKGQADKKNPVAAMMEEEPESARPEEGKPQDGNPEGDKKAEKKTPDDKHKQPGFQQSHYFVALYRFKALEKDDLDFPPGEKITVIDDSNEEWWRGKIGEKVGFFPPNFIIRVRAGERVHRVTRSFVGNREIGQITLKKDQIVVQKGDEAGGYVKVYTGRKVGLFPTDFLEEI
MSKRNTQLRRHAISNMVNELGEVSVDELAQKFETSEVTIRKDLASLEKNGQLLRRYGGAIAIPTEVIHEELSSNVSTRKLSLAKAAASLIRDHNRIVIDSGSTTAALIQQLNDKRGLVVMTNSLHVANALNELESEPTLLMTGGTWDTHSESFQGKVAESVLRAYDFDQLFIGADGIDLERGTTTFNELVGLSKVMAEVSREVIVMIESEKIGRKIPNLELAWHQIDVLVTDADIQPEHKVQIEQHGVKVICALEHHHHHH
MSLKVAVIGAGAMGGLYGAYLSRKNDVYMIDINEKVVKSINENGLIIYERENNKKEKFLVSAFTDSSNLGPMDLVIIFVKNLYTTSALKNNLNLFSDSTLVITLQNGAGNDRDLEKFIKKENILIGTTEHSCSILETGEVSHNQEGITNIGMLVYNDNIIKRISDEFKACSLKTEVYQNIQEIIWSKLFINMALNSTTAILNCKVGYLEKSKDASEIVQSILSEAVDVAIADGTFFNKKEVIDKVQKCIREDLPNAITSMNQDVSNKRLTEIDHINGAVANLAKLYKIPTPYNDCIIHIIHALEGLYNEGHHHHHH

Soluble on expression in E. coli, not soluble:
MATIKIKFRTSSVKTKEGVLFYQIIHARVTRQINTGYKIFPSEWDKHLACIILPDNNDIRRRFLAQLTSRIAEDMHRLKNIISKLEHSGNPFTSGKIIELFRIPPINKYSFLSFAQDLIIQLKQIGKERTAESYASAYNSFKRFMDNNGDVLLEDVNSNLMIKYEIYLKNCGVCPNSCSYYMRNLRAIYNRAVEKELTQQQYPFKYVYTGIDKTVKRAVSLKTIRQIQNLDLSTNPLMDYARDIFMFSFYTRGMSFIDMAYLKKKDLQNGVLSYRRHKTDQQLFIKWEKPMQKIVDKYNTIESSYLLPIIKNNGKDPRREYKNASHLINRKLKVIGQMLEIPVTLTTYVARHAWANIAKSKNISISVISEAMGHDSENTTRIYLASLDASIVDKANSIILKSL
MQLTKLTQEIFDHLYRDISEFRQTFDLPVAAPQTLNSQADTLHTSLAIEELTELAQADNKTEQADAIVDTVYVLMGRLVHLGHAKVEDNLAISYLIDLLLHVAANLNIDFLPCWDEVHSSNMSKVCRSEQEYLDTEKFYAEQGVKLMAVHQGEYIIAKCAEDFISESKTVRQGKVLKSVYYRPANLAALTQ
MKQGTMNILFFVLKTKLLKNGEAPVLMRITINGDYDDVRIQRSVPLNLWNAAKGCSKGRDRASVALNAYIAELHARALEKHKELVLEQALITPKLILKRVFGKDTEMRTLLGTMREGIKEMETLAGIDYSPVTINRYKNVVKKLQLLIPSYYGKEDVTFHELTPEFIRAFDIYLKTEAGLCRNTIVRYMKCFKKFTNMALAKEWMRKNPFYGYKMEQDETDPVFLTYDELQTVMKKKFTIPRLELVRDVFVFACFTGLAFSDVASLNKENLVQDNLGDWWIRKGRVKLEHRRKASSISNIPLLPVPLAILEKYKEHPTCIKKGCCLPVMCNQKMNSYLKEIADFCGIKKNLTTHVARHTFGTTVTLANNVPLQDVSVMLGHASTRMTQHYARVMNSSLKEAMNTVKERLAQ
MGSDKIHHHHHHMMNATPWLTVSRGTAPLLVSIPHTGIDLAGLEPRLVSPWLGRRDCDWWIDKLYDFANDLGATVVHTAISRTVIDVNRDPTGVSLYPGQTTTTLCPTDTFDGDPLYRMGEEPTPSEIDQRRETYFKPYHAALQAEIDRLRGMHEKIVLYDCHSIRSVLPRLFEGTLPVFNLGTNDGKSTDPVLQDKVAAILAATGETWVVNGRFKGGSITRGFGQPQNGVHALQMELSNRGYMREPSEKGSPENWPVPYDPTYAAPIRATLKTILETAIDWARR
MGSDKIHHHHHHMSEKRQPWVQDLLWRLEALGFDLFIGAVRMMGVDRASDFGGWLGRTFGPMSGAHKVASRNLKLAFPDKDAAWHETILREQWDGLGRSFAEFPLMDKILPSTGRVEVVGKERLVEIAENRIPVVFVSGHLSNWEVMPAAIVDSGVICEMTYRAANNPYVDKRIKESRFRYGVRLFAPKGGDGARELLEGMKQGKSVALMNDQKFNSGVAAPFFGHLAHTAPGPTRLAIRFGTVLQPMSVQRLKGARFRAVVHDPIVPPKTGDRTADIEAGVRMINAFMEDRIRERPAEWFWVHRRWPNEVYAALAERERAAESSS
MTTRQIKIVPKLIAIFTGKAAVRAAWGGRGSGKTRSFALMAALKGYQFGMGGISGTILCARQFQNSLAESSLEEIKRAIEGHDFLKDYYKVGESSIKSIDGRIAFQFSGLDRNIASIKSMGRILLCWVDEAEPVTETAWQTLIPTLREEGEGWRAELWVTWNPLRDNAPVERRFRFSNNEAIKRVEINWSDNPKFPKILNEARLDDLKNRPETYKHIWEGAYLTAVQGAYYQKEMLAAEQEGRIGRVARDPLMQMRAFWDIGGTGAKADATAIWIAQFVGREIRVLDYYEAQGQPLSEHIGWLRRNGYEKALMVLPHDGATRDRVHNVSFESALNDAGFETQVIPHQGAGAVKMRIEAVRRILPSVWFHEETTVAGRKALNWYHEKWDEKRGIGLGAEHDWSSHGADAFGLMCIVYEAPRIKPQQERYRAIEREAASWMAF
MSLVNSLTHYEILRIPSDATQDEIKKAYRNRLLNTHPDKLSKSIHDTVSNVTINKIQDAYKILSNIKTRREYDRLILENYKRQGFHNCGDGLDEFSLDDFSFDEDKLEFMMNCPRCQFVGGFHFSESLLDECIDNVDAMERSHSGYQLLTQCSACSLWLKVNFDIEEEQEGQ
MEARAIVIIPDTLKVGFIIGGRRGQGLMSIKTPQNTWSQPVFVKLTGGSIGLQAGVQSSDVVLVFRNDRNLDNIVNGKFTLGADASVAAGPVGRNALAATDSELKAEIYSWSTARGLFAGIALDGAALQIDDSANLDVYGKGTTPRMIFEGRTAEPPSSDVIAFRDRLEEVTYTARNNLEHHHHHH
MKSMEIDVEHIFDCLDRYGKGELTEKQLTKGVTDDEKMFLIMHQGLLGGNTDSEEEFNVLDWLGEEESFFMIVEINENLCRKAESILEEIGVEMPDVIESFLKQLVETKQLPVVVND
MGSDKIHHHHHHLSIIEQYLSQAEALFQSKNYSSARMYARKVIKRDDKHLGALSLLGQIHLQQQQYNEAENYFATAAAVDPNAMPVLTGLLAIAEVKQDFFLAKTYLLQLINTQGNVETYQYKLGLVATKVGDMALAEQCFEWCVANDFSEPAVQLNLGHIYKAKGDTEKAANFYHQYNQLSPKQVGVGYWSLADLKQYRFSTDDLTLLQVFATDESLSKQNQALVYFALCKAYEQTQQIDKASESMLLANKIMTLHRPFKQAQFANIVLSLLGHTPSPHIDSLPTASQTPIFIVGMPRSGTTLVEQILACHTDVGATDELPFMERFALQMDMSGGYNARLSQLSASHIDQFRQRYLAEVNHYFSDAPTYVIDKNPNNFLHIGLIKTLFPQAKIINVVRNTVDNGLSVFKQFFSFGHDYSYSFAGISSYWQHYLDIMQHWDRLYPNEILHVCFEQLVREPESQIQRILDYCELTTQAQCFTFYESERAVLTPSASQVRQPMNLKAIGQADKYQAFIPEQIAELDAIAKKAALQFFG
MFSAVHPDSRRDCKKYRYSQTSHQNYWFLKYSEFNLLGKRKIKGNFLHLFHAEEKVLFQSVMLKDQTAKTEKRTQEITCQLSKLANFEENNRKKLQDTERENKKLRNLINSLELKLVSSPENLPLQILFFLISENDELLERVFHFHCATFTKLSDFQLLFFPTPMYVANEYAKSGRNLWNEAIIADAIPEVSGPEAARMKQITDSIKYKESGFLIDRRVNASALIIQSNCSIFNSNF
MKINYQELANNIKLWAKELGFQKVGICDVDLSQHEAALEQWLEAGYHGSMDWMARHGVMRARPDELHPGTIRVISARMDYLPPKAGFASNLKDPNQAYISRYALGRDYHKLIRNQLKKLGQKIEEEVEQLGYRPFVDSAPILERPLAEKAGLGWTGKHSLLLDKNAGSWFFLGELLVDIPLPVDTPVENQCGKCTACISSCPTNAILENGVIDARRCISYLTIENSGIIPEEFRSLMGNRIYGCDDCQLVCPWNREAEITQQADFHRRSSLGNSDLISLFSWDESTFLKNMEGSAIRRIGHIQWLRNLSIAMGNAPHSEAIISALQDRLGLDENLDIHIQWAIKQQSLVITSNRKEQRLIRIIEKGLPRDA
